The values that follow come from patent publication US20260242444A1 (SUZHOU FORLONG BIOTECHNOLOGY, published 2026).

Broadly, the Kd is the constant that tells how readily two partners part at equilibrium. A lower Kd goes with higher affinity. As usually defined, the koff is the rate constant with which the complex falls apart. The low end stands for a long-lived complex, the high end for a short-lived complex. One may read the kon as the second-order rate constant of association.

One assay deals with IL-15R β protein (UniProt P14784). Nature of the assay: BLI (Octet-RED), IL-15Rβ immobilized on Ni-NTA biosensors, serial dilutions of the complex as analyte, global 1:1 fit. (In general: BLI is a label-free optical method that tracks binding on a fibre tip over time.)
The target in another assay is FL115-WT (Homo sapiens (Human), UniProt P40933 49-162). The assay is described as above. As to the method:
The binding activity of an agonistic interleukin 15 complex to the receptor IL-15R β was assayed using an Octet-RED (Pall ForteBio) Bio-Layer Interferometry (BLI) instrument. […] 6.2 (2022): e2100966, PMID: 35174992). The baseline was established in kinetics buffer and loaded biosensors were dipped into wells containing serial dilutions of an agonistic interleukin 15 complex for 300 s. FL115 (also named FL115-V2), an agonistic interleukin 15 complex according to an embodiment of the application, contains a monomeric IL-15 receptor αSu/Fc fusion protein having the amino acid sequence of SEQ ID NO: 2 and a mutant IL15 having the amino acid sequence of SEQ ID NO: 3. FL115-WT, another agonistic interleukin 15 complex according to an embodiment of the application, contains a monomeric IL-15 receptor αSu/Fc fusion protein having the amino acid sequence of SEQ ID NO: 2 and the wild-type IL15 having the amino acid sequence of SEQ ID NO: 4. The agonistic interleukin 15 complex was bound to the immobilized IL-15R β protein. The binding complexes of the IL-15R β protein-agonistic IL15 complex were then allowed to dissociate in kinetics buffer. Global data fitting to a 1:1 binding model was used to estimate the affinity using Data Analysis software version 8.1.

Chain of FL115-WT (chain, as listed by the source limits assumed, chain 1 of 2): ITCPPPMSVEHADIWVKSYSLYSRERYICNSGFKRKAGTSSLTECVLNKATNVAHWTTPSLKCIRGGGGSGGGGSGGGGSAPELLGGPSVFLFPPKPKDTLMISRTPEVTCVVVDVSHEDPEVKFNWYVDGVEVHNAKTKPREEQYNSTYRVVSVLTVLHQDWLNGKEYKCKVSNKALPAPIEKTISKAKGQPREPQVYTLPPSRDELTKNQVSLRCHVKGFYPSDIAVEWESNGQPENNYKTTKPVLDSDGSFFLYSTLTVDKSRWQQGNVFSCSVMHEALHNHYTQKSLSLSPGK
Chain of FL115-WT (P40933 49-162 limits assumed, chain 2 of 2): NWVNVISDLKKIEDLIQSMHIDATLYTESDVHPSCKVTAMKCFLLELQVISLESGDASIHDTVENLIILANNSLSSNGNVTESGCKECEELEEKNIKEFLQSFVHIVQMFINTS

ALT 803 (Fc fusion): in the assay with IL-15R β protein, the Kd came to 3.9 nM, the koff turned out to be 0.000235 s⁻¹ and the kon came to 60400 M⁻¹ s⁻¹.

B1: IL-15R β protein (receptor, UniProt P14784 27-239, looked up)
chain: AVNGTSQFTCFYNSRANISCVWSQDGALQDTSCQVHAWPDRRRWNQTCELLPVSQASWACNLILGAPDSQKLTTVDIVTLRVLCREGVRWRVMAIQDFKPFENLRLMAPISLQVVHVETHRCNISWEISQASHYFERHLEFEARTLSPGHTWEEAPLLTLKQKQEWICLETLTPDTQYEFQVRVKPLQGEFTTWSPWSQPLAFRTKPAALGKD
notes: also called IL-15 receptor β; IL-2/IL-15 receptor beta
In the assay with FL115-WT, B1 returned a Kd of 62.7 nM, an off-rate constant (koff) of 0.00108 s⁻¹ and a kon of 17200 M⁻¹ s⁻¹.
